Like-named read-outs stand apart in the source and are kept apart here.
Assays:
[1] = biological target: T1, EGF receptor in human epithelial carcinoma A431 cells (Homo sapiens, UniProt P00533); assay: Competition with 125I-EGF for binding to the EGF receptor in A431 cells; conditions: 4° C., 3 hr, FIG. 2
T1 construct: endogenous in cells; host or cells: A431 cells (American Type Culture Collection)
Method: FIG. 2 is a graph of the competitive binding of murine EGF and synthetic human TGF-alpha to the EGF receptor in A431 cells. ^125 I-EGF (10^5 cpm) was incubated with A431 cells (2×10^4 cells/well) at 4° C. for 3 hr in the presence of different M concentrations of unlabelled EGF ( ) or TGF-alpha ( ). The percent of binding as compared to the control is the mean of duplicate determinations with the error less than 10%.
Growth factor binding to A431 cells: A431 cells are grown in monolayer and ^125 I-labelled EGF bound to the cells as described by B. Friedman et al in Proc. Natl. Acad. Sci. U.S.A. 81, 3034-3039 (1984).
To ensure that the difference in the binding affinities of EGF and TGF-alpha for dp100 reflects a property of the protein rather than the particular growth factor preparations, the ability of unlabelled EGF and TGF-alpha to compete with ^125 I-labelled EGF for binding to the EGF receptor in human epithelial carcinoma A431 cells was determined.

dp100 [2] = biological target: T2, dp100 (Drosophila melanogaster, UniProt P22817); assay: Competitive affinity labelling of immunoprecipitated dp100 with 125I-insulin as label; format: binding; conditions: for Kd: competition with 125I-insulin
T2 construct: detergent-solubilized membranes from Drosophila-cultured cell lines are immunoprecipitated with anti-EGF receptor antiserum; endogenous in cells; host or cells: Drosophila Schneider L2 and Kc cells (solubilized membrane or cytoplasmic protein, immunoprecipitated)
T2 sequence (P22817 1-990): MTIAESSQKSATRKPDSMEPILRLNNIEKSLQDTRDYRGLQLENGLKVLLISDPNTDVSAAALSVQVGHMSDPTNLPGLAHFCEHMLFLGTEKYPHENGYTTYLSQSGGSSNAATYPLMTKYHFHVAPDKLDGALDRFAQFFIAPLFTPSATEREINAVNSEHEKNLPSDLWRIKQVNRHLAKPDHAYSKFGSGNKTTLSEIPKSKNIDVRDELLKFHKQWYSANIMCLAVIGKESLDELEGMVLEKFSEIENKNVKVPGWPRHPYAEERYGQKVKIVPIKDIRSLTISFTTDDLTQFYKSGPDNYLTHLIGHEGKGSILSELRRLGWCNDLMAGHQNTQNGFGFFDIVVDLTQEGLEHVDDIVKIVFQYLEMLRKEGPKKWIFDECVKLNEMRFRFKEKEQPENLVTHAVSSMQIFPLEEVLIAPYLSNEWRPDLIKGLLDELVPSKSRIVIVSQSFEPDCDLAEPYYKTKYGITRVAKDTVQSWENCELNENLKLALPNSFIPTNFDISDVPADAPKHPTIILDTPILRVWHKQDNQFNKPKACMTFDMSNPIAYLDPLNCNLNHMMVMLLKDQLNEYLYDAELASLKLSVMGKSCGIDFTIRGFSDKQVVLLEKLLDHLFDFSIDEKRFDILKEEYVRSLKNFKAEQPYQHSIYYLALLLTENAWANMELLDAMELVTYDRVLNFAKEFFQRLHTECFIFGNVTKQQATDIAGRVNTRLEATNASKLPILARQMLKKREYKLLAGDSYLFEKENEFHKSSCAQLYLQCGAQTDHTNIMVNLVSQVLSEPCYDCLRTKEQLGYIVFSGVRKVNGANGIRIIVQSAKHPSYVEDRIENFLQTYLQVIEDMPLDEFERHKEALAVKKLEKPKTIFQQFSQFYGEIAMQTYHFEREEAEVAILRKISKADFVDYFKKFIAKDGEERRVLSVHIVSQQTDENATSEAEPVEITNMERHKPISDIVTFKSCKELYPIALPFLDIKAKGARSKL
Method: Affinity Labeling of Immunoprecipitates: The dp100 protein is found in the membranes and cytoplasm of the Drosophila cells. Membrane protein is solubilized in 1 to 2% Triton X-100, 10% glycerol, 50 mM Hepes, pH 7.0, for 60 min at 4° C. Typically, 500 microgram of Drosophila membrane protein or 100 microgram of Swiss 3T3 membrane protein are used per sample. Unsolubilized material is removed by centrifugation at 12,000 x g for 10 min. The solublized membrane protein or cytoplasmic protein is diluted 1:2 and precleared by incubation with protein A-Sepharose beads (Pharmacia Fine Chemical Co., Piscataway, NJ). […] The immunopellets are washed three times with 50 mM Hepes, pH 7.0, 50 mM NaCl, 10% glycerol, 0.1% Triton X-100 and resuspended in 25 mM Hepes, 50 mM NaCl, 0.1% Triton X-100, 1 mg of bovine serum albumin per ml. […] Binding specificity is tested by the simultaneous addition of a 1000-fold excess of unlabeled ligand (30 microM) and labeled ligand. Bound growth factor is crosslinked to the immunoprecipitates by addition of disuccinimidyl suberate to 0.4 mM and incubation for 15 min at 0° C. The samples are then centrifuged and the supernatant removed. The pellets are resuspended in sample buffer (33 mM Tris.HCl, pH 6.5, 2% NaDodS04, 10% glycerol, 0.1% bromophenol blue, 2% 2-mercaptoethanol) and boiled. The protein A-Sepharose beads are removed by centrifugation, and the supernatants run on 6.5% polyacrylamide/NaDodS04 gels.
To ensure linearity, several exposures are taken. Dissociation constants are determined by statistical analysis.
The dissociation constants ranged from 10^-6 M to 10^-9 M.

dp100 [3] = biological target: T2, dp100; assay: Affinity labelling of intact Drosophila membranes; format: binding
dp100 [4] = biological target: T2, dp100; assay: Affinity labelling of anti-EGF receptor immunoprecipitates (dp100) with 125I-labelled growth factors; format: binding; conditions: for affinity labelling (crosslinking) of dp100 by 125I-labelled ligand: disuccinimidyl suberate crosslinking, immunoprecipitates
Method: (§1) Affinity Labeling of Immunoprecipitates: The dp100 protein is found in the membranes and cytoplasm of the Drosophila cells. Membrane protein is solubilized in 1 to 2% Triton X-100, 10% glycerol, 50 mM Hepes, pH 7.0, for 60 min at 4° C. Typically, 500 microgram of Drosophila membrane protein or 100 microgram of Swiss 3T3 membrane protein are used per sample. Unsolubilized material is removed by centrifugation at 12,000 x g for 10 min. The solublized membrane protein or cytoplasmic protein is diluted 1:2 and precleared by incubation with protein A-Sepharose beads (Pharmacia Fine Chemical Co., Piscataway, NJ). The cleared supernatants are treated overnight with anti-EGF receptor antiserum (1:10 dilution), anti-insulin receptor antiserum (1:50), or rabbit preimmune serum (1:10), and the product precipitated with protein A-Sepharose beads. The immunopellets are washed three times with 50 mM Hepes, pH 7.0, 50 mM NaCl, 10% glycerol, 0.1% Triton X-100 and resuspended in 25 mM Hepes, 50 mM NaCl, 0.1% Triton X-100, 1 mg of bovine serum albumin per ml. 125I-EGF (35 nM) or 125I-insulin (20 nM) is added, and the samples incubated 60 min at 15° C. Binding specificity is tested by the simultaneous addition of a 1000-fold excess of unlabeled ligand (30 microM) and labeled ligand. Bound growth factor is crosslinked to the immunoprecipitates by addition of disuccinimidyl suberate to 0.4 mM and incubation for 15 min at 0° C. The samples are then centrifuged and the supernatant removed. The pellets are resuspended in sample buffer (33 mM Tris.HCl, pH 6.5, 2% NaDodS04, 10% glycerol, 0.1% bromophenol blue, 2% 2-mercaptoethanol) and boiled. The protein A-Sepharose beads are removed by centrifugation, and the supernatants run on 6.5% polyacrylamide/NaDodS04 gels.
To increase sensitivity of detection, detergent-solubilized membranes from Drosophila-cultured cell lines are immunoprecipitated with anti-EGF receptor antiserum, anti-insulin receptor antiserum, or rabbit preimmune serum prior to affinity labeling. Radiolabeled growth factors are added to the immune precipitates in the presence or absence of excess growth factor, allowed to bind at 15° C., and then crosslinked with disuccinimidyl suberate. Samples are analyzed by separation on NaDodSO4 /PAGE and subsequent autoradiography. […] However, the anti-EGF receptor antiserum does specifically immunoprecipitate dp100. Similar results are observed when membrane proteins from two different Drosophila cell lines, Schneider L2 and Kc, are analyzed.
Controls with preimmune serum fail to immunoprecipitate dp100 or any other growth factor binding protein.

170 kDa EGF receptor = biological target: T3, 170 kDa EGF receptor (Mus musculus, UniProt Q01279); assay: Affinity labelling of EGF receptor immunoprecipitated from murine 3T3 fibroblast membranes; format: binding
T3 construct: 170 kDa EGF receptor immunoprecipitated from murine 3T3 fibroblast membranes; endogenous in cells; host or cells: Swiss 3T3 mouse fibroblasts (solubilized membranes, immunoprecipitated)
Method: as §1, with “Binding specificity is tested by the simultaneous addition of a 1000-fold excess of unlabeled ligand (30 microM) and labeled ligand. Bound growth factor is crosslinked to the immunoprecipitates by addition of disuccinimidyl suberate to 0.4 mM and incubation for 15 min at 0° C. The samples are then centrifuged and the supernatant removed. The pellets are resuspended in sample buffer (33 mM Tris.HCl, pH 6.5, 2% NaDodS04, 10% glycerol, 0.1% bromophenol blue, 2% 2-mercaptoethanol) and boiled. The protein A-Sepharose beads are removed by centrifugation, and the supernatants run on 6.5% polyacrylamide/NaDodS04 gels.” left out
The dp100 has a higher affinity for insulln than EGF. First, in crosslinking experiments with membranes, binding of ^125 I-insulin but not ^125 I-EGF is detected.

[5] = densitometric scanning of autoradiograms, read-out: Dissociation constants for ligand binding to dp100, KD
[6] = read-out: dissociation constant (Kd) for binding to dp100

EGF: murine epidermal growth factor, receptor grade and HPLC purified
affinity for the mammalian EGF receptor, EGF versus TGF-alpha preparations [1]: no significant difference | affinity for dp100 compared with recombinant TGF-alpha (dp100 [2]; FIG. 3): within the same order of magnitude as the recombinant form | Kd (dp100 [2]; [5]): 1300 nM | affinity labelling by 125I-ligand after incubation with intact Drosophila membranes (dp100 [3]): is not detected | affinity labelling (crosslinking) of dp100 by 125I-labelled ligand (dp100 [4]): can be affinity labelled | blocking of 125I-insulin and 125I-EGF binding to dp100 by excess unlabeled ligand (dp100 [4]): can block binding | blocking of 125I-EGF affinity labeling of the murine EGF receptor by excess ligand (170 kDa EGF receptor; excess unlabeled ligand): can be blocked by excess EGF | crosslinking of 125I-ligand to the 170 kDa EGF receptor (170 kDa EGF receptor; immunoprecipitated by anti-EGF receptor antiserum): can be crosslinked

IGF-I: insulin-like growth factor-I (Amgen)
Kd (dp100 [2]; [5]): 500 nM | affinity labelling (crosslinking) of dp100 by 125I-labelled ligand (dp100 [4]): can be affinity labelled

INSULIN: porcine insulin from Biomedical Technologies Inc.
affinity labelling by 125I-ligand after incubation with intact Drosophila membranes (dp100 [3]): can be detected | inhibition of 125I-insulin and 125I-EGF binding to dp100, comparison of unlabeled ligands (dp100 [4]; competition with unlabeled ligand): more effective than EGF | affinity labelling (crosslinking) of dp100 by 125I-labelled ligand (dp100 [4]): can be affinity labelled | blocking of 125I-insulin and 125I-EGF binding to dp100 by excess unlabeled ligand (dp100 [4]): can block binding

NGF: Nerve growth factor
Kd (dp100 [2]; [6]): > 1000 nM

PDGF
affinity labelling (crosslinking) of dp100 by 125I-labelled ligand (dp100 [4]): neither ^125 I-TGF-beta nor ^125 I-PDGF, two structurally unrelated growth factors, can be crosslinked

TGF-alpha: Synthetic human transforming growth factor-alpha, synthesized chemically (J. Tam, Rockefeller University)
affinity for the mammalian EGF receptor, EGF versus TGF-alpha preparations [1]: no significant difference | affinity for dp100 relative to that for EGF (dp100 [2]): three orders of magnitude higher | affinity for dp100 relative to human recombinant TGF-alpha (dp100 [2]; FIG. 3): 100-1000 times | Kd (dp100 [2]; [5]): 5 nM | Kd (dp100 [2]; [6]): 5 nM | affinity labelling (crosslinking) of dp100 by 125I-labelled ligand (dp100 [4]): can be affinity labelled

TGF-beta: 125I-TGF-beta, structurally unrelated growth factor
affinity labelling (crosslinking) of dp100 by 125I-labelled ligand (dp100 [4]): neither ^125 I-TGF-beta nor ^125 I-PDGF, two structurally unrelated growth factors, can be crosslinked

glucagon: glucagon (Sigma Chemical Co.)
Kd (dp100 [2]; [6]): > 1000 nM

native TGF-alpha: native transforming growth factor-alpha
affinity for dp100 compared with recombinant TGF-alpha (dp100 [2]; FIG. 3): within the same order of magnitude as the recombinant form
